Test results taken from the DeepSol protein solubility set.

Experiment: soluble on expression in E. coli; label from the status in PepcDB or PDB records

Sequence	soluble on expression in E. coli
MGSDKIHHHHHHMAKKKTKFMCQECGYESAKWMGKCPGCQSWNSMVEEFTEVKAKSSRSYVTSGAGIAKPQPITKVEREQEPRIDTSMKELNRVLGGGIVPGSLVLVGGDPGIGKSTLLLQLSARLADLKQRVLYISGEESVKQTKIRSDRLGVLSDHLYVLAETDMEKIEQAIGEVDPTLVIIDSIQTVYQDEITSAPGSVAQVRECTASFMRIAKTTGVAIFIVGHVTKQGAIAGPKLLEHMVDSVLYFEGERHHTYRILRAVKNRFGSTNEMGIFEMKESGLEEVANPSEIFLEDRSSGVAGSTVVASMEGTRPVLVELQALISPTSFGNPRRMATGVDHNRISLLMAVLEKRVGMLLQNQDAYVNVAGGVRLDEPAIDLGIAVSIASSFRNQHTNPHEVVIGEIGLTGEVRRVSRIDQRVNEAAKLGFKRVIIPDKNLGGWTIPSTIEVIGVSTVQDALEVTLGR	not soluble
MGSDKIHHHHHHQISGDTVKIGFITDMSGLYADIDGPGGVEAIKLAISDMKGTVAGKKIELVYADHQNKADVAASKAREWFDTQGVDMLIGGTNSGTALAMTKVAAEKKKPFIAIGAGTSRISNEDCTPYSIHYAYDTVALANGTGSAVTKAGGKSWYFLTADYAFGQSLQNDTSNVVTKSGGQVLGSVKHPLSASDFSSFLLQAQSSKAQILGLANAGGDTINSIKAANEFGITKTMKLAGLLMFINDIHSLGLNATQGMYMTDSWYWNQSPEARAWSRRFFEKMKRMPSSIQAADYSAAMHFLKAVEAAKTDDGDKVMAQMKAMPINDFYAKGSIRKEDGRGIHDMFLLQVKSQQESTEPWDYFKVVEKIPGEQAFTKLADSKCPLVKK	not soluble
MTQPLFLIGPRGCGKTTVGMALADSLNRRFVDTDQWLQSQLNMTVAEIVEREEWAGFRARETAALEAVTAPSTVIATGGGIILTEFNRHFMQNNGIVVYLCAPVSVLVNRLQAAPEEDLRPTLTGKPLSEEVQEVLEERDALYREVAHIIIDATNEPSQVISEIRSALAQTINC	soluble
MTAPFKDHFSTGSANYAAHRPTYPAQLVDELAALCPGTRLALDCGCGTGQLTVLLAERFERVVGTDASAAQIDKAQARERVEYRVALAEDSGLAAASADLVTVAQAAHWLDLPRFYEEVRRVARADAILALVTYGVLHVDGPMEPLVQHFYHQVVGPYWPAERRHVEEGYRNLPFPFEERRLPDLAIEVAWTLDELLGYVGTWSAVKEAGKALGQDPGAAFVDELREAWGDPQTRYRVSWPLTVRAGVIR	not soluble
MFGWRGRIGLIVPSSNTTMEMELHSFLPEGVSLHTSRMPLKSITDEELFKMNSYAIEAASLLADAGVEVIAFGCSSGSFIGGQDFEKELEMKIEEEVNIETFTTSTAVLEALDVLDAQSLLIVTPYSDEINQKEKEFLEGNGFEVLDIKGLNLTDNLEIGKLEPYVVYRLAKAMFAGDADAIFISCTNLRTFEIIEKLERDLGVPVITSNQATLWMALRQIDVRDQLPLGKLLREY	soluble
MFADLDYDIEEDKLGIPTVPGKVTLQKDAQNLIGISIGGGAQYCPCLYIVQVFDNTPAALDGTVAAGDEITGVNGRSIKGKTKVEVAKMIQEVKGEVTIHYNKLQADPKQLEVLFNGPGIESVKI	soluble
MGSDKIHHHHHHMKSEDNGESWSDTYFLTHGEKWHSSACNVLFSNGNVYLAMEQRCRLNEVTGWDVAGLSPTLFRACVEDNLCLASSWSRSEKFIYKEVFDGAKLDFFGIPFYDCETNKPKEIATGINNAPLGWLEANVVKFVDKDHIWHTDLKEVFHLFLRAHTGGVNYAHLFKIEIQDDQSMIPSLEHTPSGQKISYIPFPGGHLKFFIIYDELTRFYWLVSNQATDSMRRVSSLSNIKRYGLPNNERHRLQLHFSRNCVDWCFAGMVACSTNELYSRNYPSAVIKGDDLHIVCRSADEHALNPQYNNMITHHIVSNFRQLIY	not soluble
MGAVGRGRRMSERHLRRSTHKVGDITLGAVHRLNCHCGAVQIDLDLPHGLVDPRRCDCSMCRRRGAIVASVPLQGLHVRQGEDVLRLYQFNTHAAAHYFCGVCGIYTHHRRRSNPNEYGYNVGCLEGVNPYALNITVPVEDGIHHPADRVAPQLEHHHHHH	not soluble
MGSDKIHHHHHHMLICATCAVERDEPAPELCPICTDERQYVPEEGQKWLTLDGLAQQGQQTVLRENEPGLIGIRTEPKVGIGQTAQLVVTHEGSLLWDPVGYVDDSAVNAALERGPVLAIAASHPHMFGVQVEWSHRLGGVPVLVADADRRWLGRNDPVIEYWSGSHTIAEGLTLHQTGGHFPGSAVVHWAAGAAGRGVLLTGDSVYPNPDRRSISFMRSYPNHLPLSGAVALRIAAQLGELEFDRIYGNFNNVIASGAKAALHDSAQRHAAWARGDFDHLT	not soluble
MNTKKFAKVNEQIPGPKAASLLERRQNIVPKGVSNGIPTFVQSANGALVTDVDGNQYIDFAGAIGTINVGHCHPAVKEALHKQVDQYIHTGFNVMMYEPYIELAEKLAALAPGSFDKQVLFLNSGAEAVENAVKIARKYTKRPGIIAFSKGFHGRTLMTMTMTSKVKPYKFGFGPFAPEVYKAPFPYEYRCPEGLTEEQYDDFMIEEFKNFFISEVAPETIAAVVMEPVQGEGGFIVPSKKFAQEVRNICSEHGILFVADEIQTGFSRTGKYFAIDHYDVVPDLITVSKSLGAGVPISGVIGRKEIMNESAPGELGGTYAGSPLGCAAALAVLDVIEKENLNDRAIELGKVVMNRFEEMKNKYNCIGDVRGLGAMCAFELVQDRKTKTPDKTLTANLCTEANKRGLLLLSAGTYGNVIRVLMPLVITDEQLEEGLTIIEESLQICYEKANTARV	not soluble
MGSDKIHHHHHHMKMNHLDIAKEALVAQAQAVAKLADRLDGQFQSAVDLILACEGRTVVCGMGKSGLIGKKMVATFASTGTPSFFLHPAEAFHGDLGMLKPVDVLVLISYSGETEELIKLIPSLKSFGNKFIAMTGSGNSTLAKHADIWLDISVDREVCPNNLAPTTSTLATMAMGDALAVALITANQFKPMDFARYHPGGSLGRKLLTRVADVMHSPAPIVSPASSFQDCLLMMTQSRLGLAMVMDGNELVGIVTDGDLRRALLKNNQVIHASVTEFMTLNPHTIPADCRVSVAEAYMLENKIRALAVVDDCGAIVGVVEIFDGNPVA	not soluble
MKKLAVKALLFIMGTMLYSAPTYEYRRELREGARGKWTNLRQHLNSGTRLEKELTKVDKQIDKKVNEIQEIEDLLFRIEQYKAANNIR	not soluble
MGSDKIHHHHHHMEQINHQWLPHLSKEIVEDARGPEFDAYLVALEGWRRGLTLRWHTKDSEAFREIKTWFVDRPGKLFSLRLEEKTHYFFRTRGDKVTNEAVAIGADKEKTKEYLAKAGIPIPEGRRFVAEIEDDEIISYAAEIGYPLVVKPTDGSFGRGVVTNIEDEVTFAEQLRHVRHVLNYKDVIVERHVAGKDYRLYVVGDKVVAAIERIPANVVGNGKQTIQELIEAKNEERQKNPRLISCPIKLDQEMKNHLAIQGYGLDTIPEDGEMVFLTNKSNISIGGDPVDQLDSLPEEVKQLAVQALQAVPQLPHGAVDILYDDKQPVEEGAVVLELNPTAQIGSLVFPMKGIARDVPAAIIDYYFPETKGMNGQKSRFYFDFSDVLEPLVTKTASVTTVSAAPLGEVYGKKYTVTGDVQGIDYHRGLRKQAFERKLSGFVKNLENGNIEVIVMGTDPESVNDFKQAIFEDPERSDVVDVFEESWEEPVKVGFEVKADLKMQVDQLKKMKLELETVQKDLKEAERKNIKYKKSLTWRMTLPFRKTLDVLKYFKRK	not soluble
PDMKESMSDLYYEMISSAQKSIWIATPYFVPNESIRTALKAAATKGVEVRVMVPEKNDSFLTQYASRSYFPELLLEGIEVYSYQKGFMHQKVMIIDGDLASVGTANMDMRSFQLNFEVNVFFTDAEAIRTLEAHFEEDMQESEKLS	soluble
MIKESIILKNLEVPTGNICVIKGDKGKLEFLSLGDYGKEVNVKADFLGITRDLEGVPNGKVQPLTKKWVVTMSTQYGCDSGCKFCDVPKVGKGVNVTYNDLKTQLEQALNLHPEIDRTERLNIHYARMGEPSWNNDVLDFTRNLKNIVKPYIGESLIHPVFTTMCPNKNKFLAHRINEWVDIKNNLFQGDAGLQLSINSTNENQRRDMFRGNALTLNEISSIGNDLPMPKGRKYCLNFALADEYEVDAKVLKKLFDPSKFMVKITPLHKTVSSIENDIKTTKGYVSYTPYKDIENDLKKMGFDVLVFVPSYDEDLGRITCGNVILSGSLPKCKYKINLEHHHHHH	not soluble
MPLVGQNVFKSSVTEYDAQTPVVYTVYNEVHQDLLNNTVFLKALADAIDSEIQAAREGKASLLANLQSIRLALQSGSANFGGPAGTTITHNLGTTNFRVSITPTANPDGYLGEIWVVKSSNTMTVFNSGDFRGAFDYQIFKN	not soluble
MLKNLRIRKFEPEEEYVYFTYSIKNDKREKSKELIREYTTLLQKAIDYLWNLTKIQVRKKNGNYKITLPKKREVYKPLREELEKINHLASHYVDKAINDAFSILKSWRKRAIKGRASIEKPRVKKAYVRIKTTLRKVVGESVRITVRPHEYITFSWSKSWFSRRVRELELGEPIIKEEKVYLPFRYKLPWATPVDFLAIDSNLYTLDAYDGEKFVTISLKQLYSLKYSMEVKRAKVQSFASKHTKRGRELMRKYSHRERNRVLDFVHKFVNTLLDLYPMTFFAVEKLNKESMFKDANDSLSRKISRTVWGSIHRVLKYKAPLYGSFVKEVNPRFTSRSCPRCGFVSRKVGKTFECERCGFKLDRQLNASLNIYLKMCGFPHIREIARVWVGVIPLMGRRGMNGFPRDFGEAQGLRIDIEYHEIPLEHHHHHH	soluble
MMNTKVALKQLMATHFITVDVPCPECGGAMTAWKEPTPDTPPRCPPVCMECGYRSVKKKEATTAKNLYESSLIKKAKDYFLNGSVLTDRKSLHKKISNYYPSNQESTKAKNISMEFCEKTLLGEIHHLILTGGVGVGKSHLAIGCLNEILVKSNYSKKVLFVSYRELLEQLKFAMNDEEARKAITGVAMSEIKAADVVVLDDIGAELGDFNKRDEKGNLILSRASNFDIDTLTGILESRIDKPTIITSNLKSKEIKYCYGERIVSRMATHSNGFMHRFTNTKDYRLKTALEHHHHHH	soluble
MINAVGNPQTLLLLGGTSEIGLAICEEYLKKAPMRVILAALPGDPGRDAAVAQLKAAGANAVDVIDFDAVDTESHPKVIDEAWAKSDVDVAIVAFGLLGDAEELWQNQRKAVQIAEVNYTAAVSVGVLVGEKMKAQGFGQIIAMSSAAGERVRRSNFVYGSTKAGLDGFYLGLGEALREFGPRVLVIRPGQVRTRMSADVKEAPLTVNKEDVAKLAVTSAEKGKDLVWAPGAFRYVMMILRHIPRPIFKKLPI	not soluble
MSQIIWGAYAQRNTEDHPPAYAPGYKTSVLRSPKNALISIAETLSEVTAPHFSADKFGPKDNDLILNYAKDGLPIGERVIVHGYVRDQFGRPVKNALVEVWQANASGRYRHPNDQYIGAMDPNFGGCGRMLTDDNGYYVFRTIKPGPYPWRNRINEWSPAHIHFSLIADGWAQRLISQFYFEGDTLIDSCPILKTIPSEQQRRALIALEDKSNFIEADSRCYRFDITLRGRRATYFENDLT	soluble
MFDRSRKGEYALLIQPLTDHSAEDGALEEFADLTRSAGATVAGSLAVRIHRPNPSTLLSSGKLKEIKETADATGADLILINHSLSPVQERNLEKSLERRVIDRTGLILDIFAQRACSHEGKLQVELAQLRHLATRLVRGWTHLERQRGGAIGLRGPGETQLETDRRLLQKRVEQLQKRLSKVEVQRTQMRRARVRSEVPRIALVGYTNSGKSTLFNALTGASAYTANQLFATLDPKVRRIVLPGSSAMLADTVGFVRHLPHELVAAFRSTLSEAREADLLLHVIDAADPLREERIDQVDEVLQAIGAGELPQLLVFNKIDCIEGAEVRQDAQDGIPDQARRERVWLSARHGHGVELLQQILNHRLKIQNVQSELRLPPSEGRLRARLHELKGVREEQTDEHGWLLKIDLSLAEIERLAASDYGIPLRALLQDHRDAWTPTLHSKYVSAEYLEHHHHHH	not soluble
